We go through four sequences from the supplement of paper PMC5998384.

Data set [1] has as its system HeLa Kyoto. The data set is described as follows: solubility in G1/S (NP-40 vs SDS abundance) (log2 ratio); higher = more soluble. As to conditions: cell cycle stage: G1/S.
Data set [2] concerns HeLa Kyoto. As to the kind of experiment: melting temperature (median over replicates), in situ; higher = more thermally stable.
The subject of data set [3] is HeLa Kyoto. The data set is described as follows: solubility change mitosis vs G1/S (difference of NP-40 vs SDS log2 ratios) (log2 ratio difference); higher = more soluble in mitosis.
For data set [4], the system named is HeLa Kyoto. As to the kind of experiment: thermal stability score vs G1/S (z-score of summed log2 fold changes over temperatures); higher = more thermally stable than in G1/S.
The mark [5] stands for this setting: cell cycle stage: early G1 (4.5 h after nocodazole release).
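For melting temperature (median over replicates), in situ in this document: HeLa Kyoto cells synchronized by double thymidine or nocodazole block, proteins quantified by TMT10plex mass spectrometry, three independent biological replicates.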
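For solubility change mitosis vs G1/S (difference of NP-40 vs SDS log2 ratios) in this document: synchronized HeLa Kyoto cells (double thymidine block for G1/S, nocodazole release for mitosis), protein amounts in NP-40 versus SDS lysates quantified by mass spectrometry, three biological replicates.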
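For solubility in G1/S (NP-40 vs SDS abundance) in this document: HeLa Kyoto cells arrested at G1/S by double thymidine block, proteins quantified by TMT10plex mass spectrometry in mild NP-40 versus SDS extracts, three biological replicates.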
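For thermal stability score vs G1/S (z-score of summed log2 fold changes over temperatures) in this document: synchronized HeLa Kyoto cells, proteins quantified by TMT10plex mass spectrometry, three biological replicates, mitosis taken 0.5 h after nocodazole release, G1/S directly after double thymidine block.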

For the sequence “MEMFTFLLTCIFLPLLRGHSLFTCEPITVPRCMKMAYNMTFFPNLMGHYDQSIAAVEMEHFLPLANLECSPNIETFLCKAFVPTCIEQIHVVPPCRKLCEKVYSDCKKLIDTFGIRWPEELECDRLQYCDETVPVTFDPHTEFLGPQKKTEQVQRDIGFWCPRHLKTSGGQGYKFLGIDQCAPPCPNMYFKSDELEFAKSFIGTVSIFCLCATLFTFLTFLIDVRRFRYPERPIIYYSVCYSIVSLMYFIGFLLGDSTACNKADEKLELGDTVVLGSQNKACTVLFMLLYFFTMAGTVWWVILTITWFLAAGRKWSCEAIEQKAVWFHAVAWGTPGFLTVMLLAMNKVEGDNISGVCFVGLYDLDASRYFVLLPLCLCVFVGLSLLLAGIISLNHVRQVIQHDGRNQEKLKKFMIRIGVFSGLYLVPLVTLLGCYVYEQVNRITWEITWVSDHCRQYHIPCPYQAKAKARPELALFMIKYLMTLIVGISAVFWVGSKKTCTEWAGFFKRNRKRDPISESRRVLQESCEFFLKHNSKVKHKKKHYKPSSHKLKVISKSMGTSTGATANHGTSAVAITSHDYLGQETLTEIQTSPETSMREVKADGASTPRLREQDCGEPASPAASISRLSGEQVDGKGQAGSVSESARSEGRISPKSDITDTGLAQSNNLQVPSSSEPSSLKGSTSLLVHPVSGVRKEQGGGCHSDT [FZD6]”, the “solubility in G1/S (log2)” value in the data set on HeLa Kyoto [1] is -0.0341. Moreover, the melting temperature amounted to 54.7 °C in the data set on HeLa Kyoto [2] (cell cycle stage: G1/S) and 55.6 °C in the data set on HeLa Kyoto [2] (cell cycle stage: mitosis). For the same sequence, in the data set with HeLa Kyoto [3], the “solubility change mitosis (log2)” value was found to be 0.0773. In addition, the results for the thermal stability score with HeLa Kyoto [4] (setting [5]) and in the data set with HeLa Kyoto [4] (cell cycle stage: mitosis) were -1.37 and -2.82, respectively.

Turning to “MEMKKKINLELRNRSPEEVTELVLDNCLCVNGEIEGLNDTFKELEFLSMANVELSSLARLPSLNKLRKLELSDNIISGGLEVLAEKCPNLTYLNLSGNKIKDLSTVEALQNLKNLKSLDLFNCEITNLEDYRESIFELLQQITYLDGFDQEDNEAPDSEEEDDEDGDEDDEEEEENEAGPPEGYEEEEEEEEEEDEDEDEDEDEAGSELGEGEEEVGLSYLMKEEIQDEEDDDDYVEEGEEEEEEEEGGLRGEKRKRDAEDDGEEEDD [ANP32E]”, in the data set with HeLa Kyoto [1], the “solubility in G1/S (log2)” value was -0.46. The melting temperature was found to be 46.5 °C with HeLa Kyoto [2] (cell cycle stage: G1/S) and 50.1 °C with HeLa Kyoto [2] (cell cycle stage: mitosis). In the data set on HeLa Kyoto [3], the “solubility change mitosis (log2)” value is 0.1. Also, the results for the thermal stability score with HeLa Kyoto [4] (setting [5]) and in the data set with HeLa Kyoto [4] (cell cycle stage: mitosis) were 2.17 and 4.82, respectively.

With “MEMTEMTGVSLKRGALVVEDNDSGVPVEETKKQKLSECSLTKGQDGLQNDFLSISEDVPRPPDTVSTGKGGKNSEAQLEDEEEEEEDGLSEECEEEESESFADMMKHGLTEADVGITKFVSSHQGFSGILKERYSDFVVHEIGKDGRISHLNDLSIPVDEEDPSEDIFTVLTAEEKQRLEELQLFKNKETSVAIEVIEDTKEKRTIIHQAIKSLFPGLETKTEDREGKKYIVAYHAAGKKALANPRKHSWPKSRGSYCHFVLYKENKDTMDAINVLSKYLRVKPNIFSYMGTKDKRAITVQEIAVLKITAQRLAHLNKCLMNFKLGNFSYQKNPLKLGELQGNHFTVVLRNITGTDDQVQQAMNSLKEIGFINYYGMQRFGTTAVPTYQVGRAILQNSWTEVMDLILKPRSGAEKGYLVKCREEWAKTKDPTAALRKLPVKRCVEGQLLRGLSKYGMKNIVSAFGIIPRNNRLMYIHSYQSYVWNNMVSKRIEDYGLKPVPGDLVLKGATATYIEEDDVNNYSIHDVVMPLPGFDVIYPKHKIQEAYREMLTADNLDIDNMRHKIRDYSLSGAYRKIIIRPQNVSWEVVAYDDPKIPLFNTDVDNLEGKTPPVFASEGKYRALKMDFSLPPSTYATMAIREVLKMDTSIKNQTQLNTTWLR [PUS7]”, the “solubility in G1/S (log2)” value in the data set on HeLa Kyoto [1] was 0.055. The melting temperature worked out at 52.3 °C in the data set on HeLa Kyoto [2] (cell cycle stage: G1/S) and 52.2 °C in the data set with HeLa Kyoto [2] (cell cycle stage: mitosis). In the data set with HeLa Kyoto [3], the “solubility change mitosis (log2)” value is -0.141. In addition, the thermal stability score with HeLa Kyoto [4] (setting [5]) was 0.213; in the data set on HeLa Kyoto [4] (cell cycle stage: mitosis) it was 0.4.

On to “MENEPDHENVEQSLCAKTSEEELNKSFNLEASLSKFSYIDMDKELEFKNDLIDDKEFDIPQVDTPPTLESILNETDDEDESFILEDPTLLNIDTIDSHSYDTSSVASSDSGDRTNLKRKKKLPDSFSLHGSVMRHSLLKGISAQIVSAADKVDAGLPTAIAVSSLIAVGTSHGLALIFGKDQNQALRLCLGSTSVGGQYGAISALSINNDCSRLLCGFAKGQITMWDLASGKLLRSITDAHPPGTAILHIKFTDDPTLAICNDSGGSVFELTFKRVMGVRTCESRCLFSGSKGEVCCIEPLHSKPELKDHPITQFSLLAMASLTKILVIGLKPSLKVWMTFPYGRMDPSSVPLLAWHFVAVQNYVNPMLAFCRGDVVHFLLVKRDESGAIHVTKQKHLHLYYDLINFTWINSRTVVLLDSVEKLHVIDRQTQEELETVEISEVQLVYNSSHFKSLATGGNVSQALALVGEKACYQSISSYGGQIFYLGTKSVYVMMLRSWRERVDHLLKQDCLTEALALAWSFHEGKAKAVVGLSGDASKRKAIVADRMVEILFHYADRALKKCPDQGKIQVMEQHFQDMVPVIVDYCLLLQRKDLLFSQMYDKLSENSVAKGVFLECLEPYILSDKLVGITPQVMKDLIVHFQDKKLMENVEALIVHMDITSLDIQQVVLMCWENRLYDAMIYVYNRGMNEFISPMEKLFRVIAPPLNAGKTLTDEQVVMGNKLLVYISCCLAGRAYPLGDIPEDLVPLVKNQVFEFLIRLHSAEASPEEEIYPYIRTLLHFDTREFLNVLALTFEDFKNDKQAVEYQQRIVDILLKVMVENSDFTPSQVGCLFTFLARQLAKPDNTLFVNRTLFDQVLEFLCSPDDDSRHSERQQVLLELLQAGGIVQFEESRLIRMAEKAEFYQICEFMYEREHQYDKIIDCYLRDPLREEEVFNYIHNILSIPGHSAEEKQSVWQKAMDHIEELVSLKPCKAAELVATHFSGHIETVIKKLQNQVLLFKFLRSLLDPREGIHVNQELLQISPCITEQFIELLCQFNPTQVIETLQVLECYRLEETIQITQKYQLHEVTAYLLEKKGDIHGAFLIMLERLQSKLQEVTHQGENTKEDPSLKDVEDTMVETIALCQRNSHNLNQQQREALWFPLLEAMMAPQKLSSSAIPHLHSEALKSLTMQVLNSMAAFIALPSILQRILQDPVYGKGKLGEIQGLILGMLDTFNYEQTLLETTTSLLNQDLHWSLCNLRASVTRGLNPKQDYCSICLQQYKRRQEMADEIIVFSCGHLYHSFCLQNKECTVEFEGQTRWTCYKCSSSNKVGKLSENSSEIKKGRITPSQVKMSPSYHQSKGDPTAKKGTSEPVLDPQQIQAFDQLCRLYRGSSRLALLTELSQNRSSESYRPFSGSQSAPAFNSIFQNENFQLQLIPPPVTED [VPS8]”, for which, in the data set on HeLa Kyoto [1], the “solubility in G1/S (log2)” value is -0.292. Besides, the melting temperature was 52.2 °C in the data set on HeLa Kyoto [2] (cell cycle stage: G1/S) and 50.1 °C in the data set with HeLa Kyoto [2] (cell cycle stage: mitosis). The “solubility change mitosis (log2)” value with HeLa Kyoto [3] was -0.056. Moreover, the results for the thermal stability score in the data set on HeLa Kyoto [4] (setting [5]) and in the data set on HeLa Kyoto [4] (cell cycle stage: mitosis) were 0.78 and 1.34, respectively.
